{
  "source": "the DeepSol protein solubility set",
  "data": [
    {"test": "soluble on expression in E. coli; label from the status in PepcDB or PDB records", "values": [
      {"sequence": "MGSDKIHHHHHHMKVTTISIDLAKNVFQVLGMDCHAKQVFNKRLNRTQLTEFMLQQPNCDVVFEACYSSHYWGRKFLAMGHNVKLIPAQHVTPFVRGSKNDNNDTMAIYEASFRPNIRFVPVKTEEQQEILMLHRIRERLVKEKTACTNQIRGVLVDFGICFAQGYKAFEVAIWDIINDASQRPIIKLMANDFWGEYQSVNTRLDRINTLIKKLIERDPNGKILLSIPGVGPIIASAFVASIGRGQAFNTAKELGVWLGLTPKQFASGHRSVNGSITKRGNGYLRKQLIHGARAVVSHASKKQDDLNLWIMQLRSRKSICSTVVATAHRLARLIWILLQKQVPYVPQYAANQGVNHGTC", "soluble on expression in E. coli": "not soluble"},
      {"sequence": "MIVTEHLFAIEDQTECLISALLESDAVQNYKETKKAMYASAEVAQLQKAFLEAKSAFERVEAYGIHAPDFREKQRALRKAKRALDLNEIVANYRFAETNVQTLLDTIGLKIAQLISEDIKVDAGNPFFERGKKHSGCGGSCHAS", "soluble on expression in E. coli": "not soluble"},
      {"sequence": "MGSDKIHHHHHHMSIKTSNTDFKTRIRQQIEDPIMRKAVANAQQRIGANRQKMVDELGHWEEWRDRAAQIRDHVLSNLDAYLYQLSEKVTQNGGHVYFARTKEDATRYILQVAQRKNARKVVKSKSMVTEEIGVNHVLQDAGIQVIETDLGEYILQLDQDPPSHVVVPAIHKDRHQIRRVLHERLGYEGPETPEAMTLFIRQKIREDFLSAEIGITGCNFAVAETGSVCLVTNEGNARMCTTLPKTHIAVMGMERIAPTFAEVDVLITMLARSAVGARLTGYNTWLTGPREAGHVDGPEEFHLVIVDNGRSEVLASEFRDVLRCIRCGACMNTCPAYRHIGGHGYGSIYPGPIGAVISPLLGGYKDFKDLPYACSLCTACDNVCPVRIPLSKLILRHRRVMAEKGITAKAEQRAIKMFAYANSHPGLWKVGMMAGAHAASWFINGGKTPLKFGAISDWMEARDLPEADGESFRSWFKKHQAQEKKNG", "soluble on expression in E. coli": "not soluble"},
      {"sequence": "MAHHHHHHMALPPATLQSPAVPDGQQHLGCSGGSGHLSVAALDQSRTPLYSAERRASLCDESGALAAVSLSADASRPTAANFVKGELIGKGSYGAVYRGMQRSNNRIIAMKEIRLPGVVEQQLRQSEKLAATAASPAGVSSPVLPASNSVKGESALAKEVAAIKRELTLLKQLNHPNIVRYLNDEVVDGTLRIYMDYVSGGSVTAALKSYGSFEEPQAAALCFQLLQGLVYMHRRGIIHRDLKGDNLLLETSSQLKIADLGTAKSIFSSATMTTSIVGTAYFMAPEVLQPSGAAVGTAADIWSVGCCLIEMMTGKPPLSDLPNQFTVMMAIGGSATVPLDKYIPADNTWSDEVLDFISQCLRANPAQRPTAVDLLQHSWFAKFLNVMHAPSMSTPATLDSMLTPTAPPIERPFTLSPQRQMVSPICSPNLTAALTPGYAGPQYSSGQPESSASSHTSRERKGKRDKRVSARRHARYSTSGATSATSRRSQESSQASTPQYSSGTRTRDGSAQSASLPRSHSHPGRQQGPSSKRRAHAHIVGHGLPRDDSRQSFSSEQAMPQHTCTPGSGGAGDGSGENKTKTAFLPAITHNGSVAPSPCGYSLDVSRCSRSLKNSGSSREPTKACLYTTDTENKS", "soluble on expression in E. coli": "not soluble"},
      {"sequence": "MAKKKKKKSFNTTRPTDPPVYPVTVPFLGHIVQFGKNPLEFMQRCKRDLKSGVFTISIGGQRVTIVGDPHEHSRFFSPRNEILSPREVYTIMTPVFGEGVAYAAPYPRMREQLNFLAEELTIAKFQNFVPAIQHEVRKFMAENWKEDEGVINLLEDCGAMIINTACQCLFGEDLRKRLNARHFAQLLSKMESSLIPAAVFMPWLLRLPLPQSARCREARAELQKILGEIIVAREKEEASKDNNTSDLLGGLLKAVYRDGTRMSLHEVCGMIVAAMFAGQHTSTITTSWSMLHLMHPKNKKWLDKLHKEIDEFPAQLNYDNVMDEMPFAERCVRESIRRDPPLLMVMRMVKAEVKVGSYVVPKGDIIACSPLLSHHDEEAFPNPRLWDPERDEKVDGAFIGFGAGVHKCIGQKFALLQVKTILATAFREYDFQLLRDEVPDPDYHTMVVGPTLNQCLVKYTRKKKLPSHHHHHH", "soluble on expression in E. coli": "soluble"},
      {"sequence": "HDKVVVLEAKNGNVTFDHKKHAGVKGECKACHETEAGGKIAGMGKDWAHKTCTGCHKEMGKGPTKCGECHKK", "soluble on expression in E. coli": "soluble"},
      {"sequence": "GPGSMYCHAGVPSTSPSPTDFSEVHKILCGHIKQGNNFSVAAAVALEPLHGSSEFWRTCGYRSGIVSALLASSLGVQRETDQLSHLEPMTVADVYAMLRHVVDENAHLRQIIARLESGECDPDDGSGGITSSTERLRSLISEGYDALTGRSSPCMGEYDCGQTPGKWKTCSNGAAGTKRRRDSPEVTEWAYVRPESPVPASETLSPAANSGDDTVDEAEQNNALDVLEQLPALPGTTRTVSSFDAVGEMVNRGAGGPSLHPTNPSEFRVGSERGSTIETHSSSEVSNFANVGVGTSSGKQKRYKFSASEDEAIIKGLARFTKGQQRFQQIYYAYRSVWHPARTVSQLYDHWRGTLRYKVIQQQGYRGKNSVAARSPEKASNMENNE", "soluble on expression in E. coli": "not soluble"},
      {"sequence": "MDERFISFVCLLFTMEFQKYRTMHFPRDVYIGHDVLNRVLDVVDQNSRTRDVIIVTGNTTYELAGKKIVEILASSPYEVHLSFAGEANYENLKKIEEETNDVNAGIIIGVGGGTKIDLAKKLAYDKNLPFISIPTSPSHDGIASPRASLRRNGISYSEEGAMPIGVIADTSVMIKAPYRYLAAGAADVISNISAVKDWKLAHRLRGEEFSSSAAAMSEYSAQEVISQVGEIRKYDESSVWLVTKNILASGTAMAIAGNSRPGSGSEHLFAHALEAAGVNNMLHGEMCAMGTIVSLYLHDDNWQKIRDVFESLGVSVKARDYGLKEEVVIEALRRAHAIRPERYTILGESDMSYDAAVKALELTGII", "soluble on expression in E. coli": "not soluble"},
      {"sequence": "MSLRWLSLNTATVRKQGDLVAIIDACAKHGIRAIDPWRDQVASVGLDRAARAVRDAGLELSGYCRGGMFTSDASRRGEVRDDNRRCVDEAKALGAPCIVLVVGGLPQYSRPGSEPSKDIAAARGQVEEALADMLDYARQAGLPLAIEPLHPAYAADRACVNTTKQALDICDRLDPGRTGMLGVALDVYHIWWDPELMSQIARAGRDRLLAFHVCDWLVPTRDILNDRGMMGDGVIDIKSVRKAVEAQGFAGYSEIEIFSNDWWAKPMDEVLRTCITRHRTVVEGHHHHHH", "soluble on expression in E. coli": "not soluble"},
      {"sequence": "MSLRAVRLHAKWDPRPEFKLGPKDIEGKLTWLGSKVWRYPEVRVEEVPEPRIEKPTEIIIKVKACGICGSDVHMAQTDEEGYILYPGLTGFPVTLGHEFSGVVVEAGPEAINRRTNKRFEIGEPVCAEEMLWCGHCRPCAEGFPNHCENLNELGFNVDGAFAEYVKVDAKYAWSLRELEGVYEGDRLFLAGSLVEPTSVAYNAVIVRGGGIRPGDNVVILGGGPIGLAAVAILKHAGASKVILSEPSEVRRNLAKELGADHVIDPTKENFVEAVLDYTNGLGAKLFLEATGVPQLVWPQIEEVIWRARGINATVAIVARADAKIPLTGEVFQVRRAQIVGSQGHSGHGTFPRVISLMASGMDMTKIISKTVSMEEIPEYIKRLQTDKSLVKVTMLNEGHHHHHH", "soluble on expression in E. coli": "soluble"},
      {"sequence": "MGSDKIHHHHHHMLNTKDKQPILLIIFGQKMKEYDDLIRSTVERLSKRDRPVSILISKELNHVIHHYDAQFENLETLVGYINTHEDSLIYPLCLDKNHELFQEFLAWQSHYSRQYISDNLSEKSVQAIDNNQDFVQVDCLVMRDSLNNCLYVSDLEYIESNKTTGKSLAIVPSQTLSDAARQTIRDVAFDVCRKANIIGVCYFSFLIDLNSLDYHIISLSSGLSHQSILFETITTYPVLEIATKLTVGYTFSQLKHSYYPNTSAFLEPQLDYVATVSFSFEKVDYIFFARNIEQLFLNLLEASSHDHFPFLSDISEEDLMFALIQKKENRLAYLLEAFRRGFDLYDLSSVTKINPFYLDKCLHIVELYENLNKSQYNVDIYKEAKRYGFSDDYIASSWQISLIDMLEYRKKHSVAPVLKQVEQSSGVLTGHQIQYFRSYDWHSDYISSGCQKALIMVDKGYSLVKLNELIKQIKQTHLELLIVTNQPLLIEQLNDTSIIFDTIGIETILTIMGIEEVEEVYLLGESQADMFSKMKNFSISCQSI", "soluble on expression in E. coli": "not soluble"},
      {"sequence": "MSLYSGYGYFYRGKFMKPFESHNKQLKILRRRGMEVPSSAKRDLENENYYNIINGYKDLFLELDVNGNFLVPDKYKQGTHFKEVFSLYKLDRKFRNVLLEYLLVFETHIKSRISYYFSEKYREPHSYLYFKNYSSDTSKTDSIVKMVATFSSVMSNRKNKPLKHYINTHNGVPLWILVNYLTLGNVSKMYSNLDDDLRLEVAKDYKRKLERDYKTRVQITPSDVDSILQQAHMFRNVCAHEERLYDYKIDRAKSRANIFANYNKIYDKEYVPTMNGSYVFDLLISLCLFLNKHDYIKLVKNMDKLISNYSHSFYTITIDDLYTKMNFPDQTKILDMLEGHHHHHH", "soluble on expression in E. coli": "soluble"},
      {"sequence": "MAHHHHHHMQGTGAVSASHCTFNQRSGVSKKEELGDAMKVDNVFPGGPKKDVLVSCANKSRQTAAGIFVHWCCRCESETSGDRGNVCEFFGDCECDDIYSTSNVPKCVKGDHMWRDSSTALRAVLQDVKGRDACNISTPNGKEILMKLTREELTSNIAPQDSSSKIFLFLLAALLMQDESVAQTSN", "soluble on expression in E. coli": "not soluble"},
      {"sequence": "SEKLINRVGPNGESRAQAVTSDQEKRLLHQLREITRVMKEGKFIDTSPEKEAEEAPYMEDWEGYPEETYPIYDLSDGIKRRQETILVDYPDLKEPSAEEIAEQMGEIEEEGSERLSWDHLPTDPGAQKDNSVAPCDPKPESCSCCVHEEEDPAVLAENAGFSADGYSEQEEATKENLPQDFTNEGLGVSTDNAHVGGMLRKRNPQGFE", "soluble on expression in E. coli": "soluble"},
      {"sequence": "MVKSQPILRYILRGIPAIAVAVLLSACSTTTNTAKNMHSETHAVGNSDSSSLQASQDEFENMVRNLDVKSRIMDQYADWKGVRYRLGGSTKKGVDCSSFVQRTFREQFGLELPRSTYEQQEMGKAVSRNNLRTGDLVLFRAGSTGRHVGIYIGNNQFVHASTSSGVIISSMNEPYWKKRYNEARRVLSRS", "soluble on expression in E. coli": "not soluble"},
      {"sequence": "MAHHHHHHMFRAARLLRGVSPFSVFLMDQKNNPSLQGVSIAKRGKMLSKMYKELSQQQRRDLQKRAEVHPSLRKSKRARPPRKTEFAEFVRQNYKVVQGLNYRKRFSALSQLYELHKPIEVQVTKALKEAKAKKVTSAKTAVKKAATKSKTAKRAKGGKSTPKKSTGKK", "soluble on expression in E. coli": "soluble"},
      {"sequence": "MGPLPRKGNMKQKITDYLDEIYGGTFTATHLQKLVTRLESAKRLITQRRKKHWDESDVVLITYADQFHSNDLKPLPTFNQFYHQWLQSIFSHVHLLPFYPWSSDDGFSVIDYHQVASEAGEWQDIQQLGECSHLMFDFVCNHMSAKSEWFKNYLQQHPGFEDFFIAVDPQTDLSAVTRPRALPLLTPFQMRDHSTRHLWTTFSDDQIDLNYRSPEVLLAMVDVLLCYLAKGAEYVRLDAVGFMWKEPGTSCIHLEKTHLIIKLLRSIIDNVAPGTVIITETNVPHKDNIAYFGAGDDEAHMVYQFSLPPLVLHAVQKQNVEALCAWAQNLTLPSSNTTWFNFLASHDGIGLNPLRGLLPESEILELVEALQQEGALVNWKNNPDGTRSPYEINVTYMDALSRRESSDEERCARFILAHAILLSFPGVPAIYIQSILGSRNDYAGVEKLGYNRAINRKKYHSKEITRELNDEATLRHAVYHELSRLITLRRSHNEFHPDNNFTIDTINSSVMRIPRSNADGNCLTGLFNVSKNIQHVNITNLHGRDLISEVDILGNEITLRPWQVMWIK", "soluble on expression in E. coli": "not soluble"},
      {"sequence": "MDLFKRKVKEWVYSLSTDDHYAEYNPDETPTFNMGKRLNSNNGQVNPSQMHLNSVDEEMSMGFQNGVPSNEDINIDEFTSTESNDGVSETLLAWRHIDFWTSEHNPDLNATLSDPCTQNDITHAEEDLEVSFPNPVKASFKIHDGQEDLESMTGTSGLFYGFQLMTLDQVVAMTQAWRNVAKNLNKRSQQGLSHVTSTGSSSSMERLNGNKFKLPNIPDQKSIPPNAVQPVYAHPAWIPLITDNAGNHIGVDLAPGPNGKYAQIITFGRDFDTKFVIAENWGEFLLSFANDLEAGNWYLVDDNDDYFSGDGELVFRDKKSNGPIQDYFEVLKRRTWIKYQENLRSQQQKSQPDTSLQEQKYVPASQKKVAAEQPSTLNAESIKGEDSGSADVQSVQDHESVKIVKTEPSEAETTTVNTESLGQAEHEIKADNVDIKQESERKEDEKQPKVEEKEHVENEHVTESAKKDDDVNKQTEEMNKKEENEIRSDDAKVEEAREEFENIAL", "soluble on expression in E. coli": "soluble"}
    ]}
  ]
}
